This passage reports co-IP mass spectrometry count and co-IP mass spectrometry count (N-term IgG) results from patent US20240261333A1, “NOVEL TARGETS FOR ENHANCING ANTI-TUMOR IMMUNITY” (THE BROAD INSTITUTE, INC., priority 2021, published 2024).

One test addresses RPL24 (human) (UniProt P83731). Nature of the test: co-IP/MS, anti-FLAG IP of C-FLAG B3GNT2 cell lysate.
A further test deals with CASP14 (human) (UniProt P31944). The description is as above.
Another test has as its target TUBB (human) (UniProt P07437). The test is described as above.
A further test concerns the target ATP1A1 (human) (UniProt P05023). The description is as above.
The target of the next test is RPL30 (human) (UniProt P62888). The test is described as above.
The next test deals with RPS15 (human) (UniProt P62841). The description is as above.
Another test has as its target GCN1 (human) (UniProt Q92616). The test is described as above.
The next test addresses HSD17B12 (human) (UniProt Q53GQ0). Described as above.
A further test deals with RPLPO (human) (UniProt P05388). Described as above.
The target in a further test is RPL14 (human) (UniProt P50914). Described as above.
The target of the next test is PDIA6 (human) (UniProt Q15084). Described as above.
A further test addresses CANX (human) (UniProt P27824). The description is as above.
A further test addresses RPS5 (human) (UniProt P46782). The description is as above.
The target of another test is SLC25A4 (human) (UniProt P12235). The test is described as above.
The target of a further test is ERLIN1 (human) (UniProt O75477). Described as above.
For another test, the target named is PRDX2 (human) (UniProt P32119). Described as above.
For the next test, the target named is CALU (human) (UniProt O43852). The description is as above.
Another test has as its target RPL23A (human) (UniProt P62750). Described as above.
The next test addresses DNAJA1 (human) (UniProt P31689). The test is described as above.
The next test addresses UQCRC2 (human) (UniProt P22695). Described as above.
The target of another test is CAPZB (human) (UniProt P47756). Described as above.
A further test deals with PRDX1 (human) (UniProt Q06830). Described as above.
A further test concerns the target RPS3A (human) (UniProt P61247). The description is as above.
A further test deals with ERLIN2 (human) (UniProt O94905). The description is as above.
For another test, the target named is IPO4 (human) (UniProt Q8TEX9). The test is described as above.
For the next test, the target named is FKBP10 (human) (UniProt Q96AY3). Described as above.
The target of a further test is SQSTM1 (human) (UniProt Q13501). The test is described as above.
The target of a further test is RCN2 (human) (UniProt Q14257). Described as above.
A further test has as its target RPL12 (human) (UniProt P30050). Described as above.
The target in the next test is RPS9 (human) (UniProt P46781). Described as above.
The next test deals with FAM3C (human) (UniProt Q92520). The description is as above.
Another test concerns the target RPL13A (human) (UniProt P40429). Described as above.
The target in another test is CKAP4 (human) (UniProt Q07065). The description is as above.
The next test has as its target VIM (human) (UniProt P08670). Nature of the test: IgG control IP from lysate of cells overexpressing N-FLAG B3GNT2, then mass spectrometry.
A further test concerns the target TIMP3 (human) (UniProt P35625). The description is as above.
For a further test, the target named is MAGED2 (human) (UniProt Q9UNF1). The description is as above.
The next test deals with SRP14 (human) (UniProt P37108). The test is described as above.
In another test the target is PABPC1 (human) (UniProt P11940). Described as above.

Chain of CKAP4 (human) (Q07065 whole entry): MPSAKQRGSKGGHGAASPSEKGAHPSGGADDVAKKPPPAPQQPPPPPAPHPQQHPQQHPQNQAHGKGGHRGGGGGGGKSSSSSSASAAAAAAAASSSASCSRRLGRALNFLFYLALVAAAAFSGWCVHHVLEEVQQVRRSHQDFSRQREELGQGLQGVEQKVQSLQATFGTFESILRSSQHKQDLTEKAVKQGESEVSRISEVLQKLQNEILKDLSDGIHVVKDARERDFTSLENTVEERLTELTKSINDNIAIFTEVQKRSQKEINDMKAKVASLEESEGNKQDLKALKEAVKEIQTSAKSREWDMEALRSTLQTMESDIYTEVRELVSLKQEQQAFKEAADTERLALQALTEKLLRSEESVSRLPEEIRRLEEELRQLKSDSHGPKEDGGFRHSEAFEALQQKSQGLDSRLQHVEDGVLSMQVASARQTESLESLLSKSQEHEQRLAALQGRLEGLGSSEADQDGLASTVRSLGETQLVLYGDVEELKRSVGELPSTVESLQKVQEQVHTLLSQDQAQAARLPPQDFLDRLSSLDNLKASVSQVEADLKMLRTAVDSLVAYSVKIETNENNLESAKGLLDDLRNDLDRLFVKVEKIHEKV
Chain of MAGED2 (human) (Q9UNF1 2-606 limits assumed): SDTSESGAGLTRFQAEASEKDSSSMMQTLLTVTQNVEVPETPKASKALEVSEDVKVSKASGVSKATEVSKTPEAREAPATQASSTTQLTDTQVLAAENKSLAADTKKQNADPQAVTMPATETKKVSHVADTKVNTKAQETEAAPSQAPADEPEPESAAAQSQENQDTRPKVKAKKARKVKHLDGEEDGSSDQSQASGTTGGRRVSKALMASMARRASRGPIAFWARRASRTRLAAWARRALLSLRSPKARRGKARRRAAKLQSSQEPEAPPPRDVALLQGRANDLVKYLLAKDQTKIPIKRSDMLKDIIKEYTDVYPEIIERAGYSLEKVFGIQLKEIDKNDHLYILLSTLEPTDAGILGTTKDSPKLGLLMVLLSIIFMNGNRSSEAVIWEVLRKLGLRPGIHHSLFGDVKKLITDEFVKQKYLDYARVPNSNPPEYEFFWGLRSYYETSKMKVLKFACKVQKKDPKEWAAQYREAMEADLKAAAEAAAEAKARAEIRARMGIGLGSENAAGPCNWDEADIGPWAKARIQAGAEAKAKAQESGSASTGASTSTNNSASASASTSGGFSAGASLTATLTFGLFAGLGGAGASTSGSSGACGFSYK
Chain of VIM (human) (P08670 2-466 limits assumed): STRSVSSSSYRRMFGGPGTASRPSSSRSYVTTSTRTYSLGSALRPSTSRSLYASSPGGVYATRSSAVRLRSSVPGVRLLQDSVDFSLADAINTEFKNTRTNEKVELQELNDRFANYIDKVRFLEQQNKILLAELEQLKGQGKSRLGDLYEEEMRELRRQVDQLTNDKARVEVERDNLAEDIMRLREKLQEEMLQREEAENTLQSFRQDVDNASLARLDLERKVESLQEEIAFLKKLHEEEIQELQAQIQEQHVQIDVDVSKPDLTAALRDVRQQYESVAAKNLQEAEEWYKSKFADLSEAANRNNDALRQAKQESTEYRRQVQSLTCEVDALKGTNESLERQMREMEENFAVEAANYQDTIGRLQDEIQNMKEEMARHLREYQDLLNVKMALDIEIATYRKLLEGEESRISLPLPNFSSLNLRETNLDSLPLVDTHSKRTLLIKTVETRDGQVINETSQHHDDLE
Chain of CASP14 (human) (P31944 whole entry): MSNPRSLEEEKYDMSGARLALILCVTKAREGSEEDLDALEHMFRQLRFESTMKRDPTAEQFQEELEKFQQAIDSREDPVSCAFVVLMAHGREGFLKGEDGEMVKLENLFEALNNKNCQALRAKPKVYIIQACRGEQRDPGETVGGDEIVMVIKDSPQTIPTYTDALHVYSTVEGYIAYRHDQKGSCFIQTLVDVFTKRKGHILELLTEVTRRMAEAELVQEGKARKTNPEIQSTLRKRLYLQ
Chain of ERLIN1 (human) (O75477 whole entry): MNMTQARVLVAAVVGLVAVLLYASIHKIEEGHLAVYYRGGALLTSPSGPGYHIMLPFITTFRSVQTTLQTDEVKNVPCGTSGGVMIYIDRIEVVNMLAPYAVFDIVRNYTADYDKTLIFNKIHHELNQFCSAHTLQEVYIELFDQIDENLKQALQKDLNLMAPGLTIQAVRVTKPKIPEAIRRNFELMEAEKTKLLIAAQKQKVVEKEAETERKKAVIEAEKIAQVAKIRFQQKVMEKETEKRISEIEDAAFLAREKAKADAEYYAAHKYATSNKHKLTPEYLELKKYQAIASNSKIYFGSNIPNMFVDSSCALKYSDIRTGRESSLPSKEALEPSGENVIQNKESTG
Chain of UQCRC2 (human) (P22695 15-453 limits assumed): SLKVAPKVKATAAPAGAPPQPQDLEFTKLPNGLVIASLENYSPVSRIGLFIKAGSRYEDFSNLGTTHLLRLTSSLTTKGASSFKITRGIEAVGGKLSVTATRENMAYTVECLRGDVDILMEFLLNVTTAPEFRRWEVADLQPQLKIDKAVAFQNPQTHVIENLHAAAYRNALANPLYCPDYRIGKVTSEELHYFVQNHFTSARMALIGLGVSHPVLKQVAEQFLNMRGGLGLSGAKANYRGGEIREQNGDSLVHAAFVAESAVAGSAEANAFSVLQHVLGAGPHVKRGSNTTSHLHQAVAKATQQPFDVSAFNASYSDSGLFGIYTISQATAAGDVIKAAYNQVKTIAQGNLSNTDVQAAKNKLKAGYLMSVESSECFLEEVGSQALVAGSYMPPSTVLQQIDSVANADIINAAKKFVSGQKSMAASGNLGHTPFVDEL
Chain of CALU (human) (O43852 20-315 limits assumed): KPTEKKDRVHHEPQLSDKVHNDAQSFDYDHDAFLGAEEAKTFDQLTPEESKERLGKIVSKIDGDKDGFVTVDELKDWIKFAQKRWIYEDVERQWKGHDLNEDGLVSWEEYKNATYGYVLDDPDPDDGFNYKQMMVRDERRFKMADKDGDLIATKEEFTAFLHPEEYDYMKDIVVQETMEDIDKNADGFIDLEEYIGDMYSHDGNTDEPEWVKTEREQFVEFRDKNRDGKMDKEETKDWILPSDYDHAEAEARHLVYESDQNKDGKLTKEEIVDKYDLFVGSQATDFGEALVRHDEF
Chain of SLC25A4 (human) (P12235 2-298 limits assumed): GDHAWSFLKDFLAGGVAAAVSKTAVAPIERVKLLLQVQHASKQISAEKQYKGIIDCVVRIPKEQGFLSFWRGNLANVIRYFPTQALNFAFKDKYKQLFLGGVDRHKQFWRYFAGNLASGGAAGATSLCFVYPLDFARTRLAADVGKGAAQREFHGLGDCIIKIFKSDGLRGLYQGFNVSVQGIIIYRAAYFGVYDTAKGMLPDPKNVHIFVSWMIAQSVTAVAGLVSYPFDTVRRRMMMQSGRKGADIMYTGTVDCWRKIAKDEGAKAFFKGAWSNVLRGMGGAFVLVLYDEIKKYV
Chain of PRDX1 (human) (Q06830 2-199 limits assumed): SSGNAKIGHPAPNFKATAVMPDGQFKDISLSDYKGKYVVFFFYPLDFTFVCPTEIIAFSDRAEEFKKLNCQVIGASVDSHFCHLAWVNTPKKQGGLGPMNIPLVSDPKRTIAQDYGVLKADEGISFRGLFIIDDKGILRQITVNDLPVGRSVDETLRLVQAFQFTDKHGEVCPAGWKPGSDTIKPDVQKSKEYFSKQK
Chain of IPO4 (human) (Q8TEX9 whole entry): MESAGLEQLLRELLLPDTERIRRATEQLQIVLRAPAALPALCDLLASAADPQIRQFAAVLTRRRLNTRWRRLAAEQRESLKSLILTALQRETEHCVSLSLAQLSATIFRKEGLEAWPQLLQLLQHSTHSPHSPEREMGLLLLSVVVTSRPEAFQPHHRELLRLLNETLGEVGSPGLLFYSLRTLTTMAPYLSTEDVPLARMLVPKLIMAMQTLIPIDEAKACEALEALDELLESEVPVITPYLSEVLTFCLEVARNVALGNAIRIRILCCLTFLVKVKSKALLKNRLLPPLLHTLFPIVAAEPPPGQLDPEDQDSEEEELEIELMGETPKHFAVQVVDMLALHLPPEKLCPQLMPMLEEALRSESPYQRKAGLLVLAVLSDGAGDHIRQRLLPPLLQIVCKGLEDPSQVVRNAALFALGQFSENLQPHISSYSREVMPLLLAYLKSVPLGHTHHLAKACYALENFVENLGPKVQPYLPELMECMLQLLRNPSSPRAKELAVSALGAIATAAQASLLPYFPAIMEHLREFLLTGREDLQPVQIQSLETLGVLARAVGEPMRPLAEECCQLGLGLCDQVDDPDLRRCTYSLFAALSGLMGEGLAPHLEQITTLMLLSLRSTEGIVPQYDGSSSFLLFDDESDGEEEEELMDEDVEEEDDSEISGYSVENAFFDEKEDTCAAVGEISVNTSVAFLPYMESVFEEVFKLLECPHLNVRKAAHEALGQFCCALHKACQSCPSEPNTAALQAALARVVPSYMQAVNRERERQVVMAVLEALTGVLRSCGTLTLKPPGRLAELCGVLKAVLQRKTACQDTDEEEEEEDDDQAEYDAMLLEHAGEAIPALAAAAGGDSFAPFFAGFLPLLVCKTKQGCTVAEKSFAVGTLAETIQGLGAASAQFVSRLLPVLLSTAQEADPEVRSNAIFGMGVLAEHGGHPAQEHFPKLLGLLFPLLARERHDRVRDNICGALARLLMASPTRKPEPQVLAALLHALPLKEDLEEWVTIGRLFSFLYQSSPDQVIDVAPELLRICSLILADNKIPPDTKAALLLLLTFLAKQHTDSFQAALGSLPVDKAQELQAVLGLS
Chain of RCN2 (human) (Q14257 other isoform, or with tags, fused parts or gaps limits assumed): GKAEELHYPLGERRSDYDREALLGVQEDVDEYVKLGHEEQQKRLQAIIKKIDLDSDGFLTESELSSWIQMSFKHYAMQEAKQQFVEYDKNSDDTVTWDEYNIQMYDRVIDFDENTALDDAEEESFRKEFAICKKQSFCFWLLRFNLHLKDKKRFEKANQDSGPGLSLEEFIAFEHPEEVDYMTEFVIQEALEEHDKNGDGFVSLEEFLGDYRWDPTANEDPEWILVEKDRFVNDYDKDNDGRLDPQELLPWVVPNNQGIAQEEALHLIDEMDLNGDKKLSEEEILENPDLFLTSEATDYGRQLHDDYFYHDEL

As for “C-terminal FLAG tagged B3GNT2 (from UniProt Q9NY97 1-397) (enzyme)”, the co-IP mass spectrometry count turned out to be 14 in the test with RPL24 (human); 9 in the test with CASP14 (human); 117 in the test with TUBB (human); 12 with ATP1A1 (human); 14 with RPL30 (human); 11 with RPS15 (human). In addition, the co-IP mass spectrometry count came out at 4 with GCN1 (human); 10 with HSD17B12 (human); 10 with RPLPO (human); 21 with RPL14 (human); 14 in the test with PDIA6 (human); 11 in the test with CANX (human). Besides, the co-IP mass spectrometry count in the test with RPS5 (human) worked out at 6; with SLC25A4 (human), 14; with ERLIN1 (human) it was 9; in the test with PRDX2 (human) it was 5; in the test with CALU (human) it was 13; with RPL23A (human), 10. Besides, the co-IP mass spectrometry count came to 10 with DNAJA1 (human); 4 with UQCRC2 (human); 5 with CAPZB (human); 6 in the test with PRDX1 (human); 29 with RPS3A (human); 9 with ERLIN2 (human). The co-IP mass spectrometry count in the test with IPO4 (human) was 17; with FKBP10 (human), 16; with SQSTM1 (human), 43; in the test with RCN2 (human) it was 16; in the test with RPL12 (human), 11; with RPS9 (human), 6. Besides, the co-IP mass spectrometry count stood at 23 with FAM3C (human), 13 with RPL13A (human) and 14 with CKAP4 (human).
With “IgG control (Millipore Sigma 12-371) (antibody)”, the co-IP mass spectrometry count (N-term IgG) is 452 with VIM (human); 0 in the test with TIMP3 (human); 0 with MAGED2 (human); 0 with SRP14 (human); 37 with PABPC1 (human).
